Key:
293T cells = experiment: Cell viability of 293T cell lines treated with Inhibitor of Telomerase I (crystal violet); format: cell-based, human; settings: 24.2 vs pLNCX 293T cells, inhibitor 0-20 μM, 72 hours
Description: FIG. 6.—Cell viability and telomerase activity of the 293T cell lines: pLNCX and 24.2 treated with the Inhibitor of telomerase I. A) Cell viability. After seeding the 293T cells: pLNCX and 24.2 in 24-well plates, they were incubated with concentrations between 0-20 μM of the Inhibitor of Telomerase I. The cell viability was measured by means of the crystal violet technique after 72 hours of exposure to the drug. The data represent the mean of two experiments performed in quadruplicate. B) Telomerase activity at different doses of the Inhibitor of Telomerase I. Telomerase activity of the 293T cells: 24.2 and pLNCX in the presence of different concentrations of the inhibitor of telomerase I (5-7 μM) for 3 days. The cells were seeded in 60-mm plates and subsequently treated at the specified concentrations and times.
The effect of GSE 24.2 in response to the inhibitor of telomerase I was studied. To this end, a viability curve was performed wherein the pLNCX and 24.2 cell lines were treated with increasing concentrations of the inhibitor of telomerase I (0-20 μM) for 72 hours. […]
Growth curves. […] The number of cells was determined by estimating the absorbance at 595 nm. […]

hTERT [1] = experiment: RT-PCR expression of hTERT in 293T cell lines after cisplatin; format: cell-based, human; settings: pre-treated 0.5 μg/ml, treated 3 μg/ml cisplatin for 3 and 7 days
Description: FIG. 7.—Expression levels of different genes related to telomerase in 293T cells: pLNCX and 24.2 following treatment with cisplatin. The cells were seeded in 60-mm plates, treated with 3 μg/ml of cDDP following pre-treatment with 0.5 μg/ml of cisplatin for 3 days and, subsequently, collected at the times specified in the figure (3 and 7 days). Following the extraction of RNA, RT-PCR was performed with oligos specific for hTERT, hTR and dyskerin in order to study the expression levels of the messenger RNAs. As a starting RNA control, oligos for the amplification of GAPDH were used.
One of the explanations for the lower sensitivity of pLNCX 24.2 cells to cisplatin could be a change in the levels of some of the components of the telomerase complex. Therefore, the expression levels of different genes involved in the telomerase complex and the effect that cisplatin had on their expression were studied. To this end, the pLNCX and pLNCX 24.2 cells were pre-treated with 0.5 μg/ml and treated with 3 μg/ml of cisplatin for 3 and 7 days. Using oligos specific for hTR, hTERT and dyskerin, the expression levels of these genes and the effect of cisplatin on said expression were studied. […] This change in the sensitivity to cisplatin could explain, at least partially, the difference in sensitivity in the telomerase activity assays.
Expression of genes by RT-PCR. […]

hTERT [2] = experiment: RT-PCR of hTERT in VA13 cells; format: cell-based; settings: transient transfection
Description: FIG. 10.—Telomerase activity and expression levels of hTERT and hTR in the cells of patients with dyskeratosis congenita and in VA13 cells transiently transfected with the 24.2 plasmid or the pLNCX empty vector. A) Telomerase activity measured by means of the TRAP assay in the cells of patients with dyskeratosis congenita (DC-1, DC-2 and DC-3) and in the carrier parent (DC-C) following electroporation of 45 μg of the pLNCX empty plasmid (−) or the pLNCX 24.2 vector (+) by 15 million cells. B) RT-PCR of the RNA from cells of one of the patients with dyskeratosis congenita, DC3 transfected with the empty vector and DC3 transfected with the 24.2 plasmid, using oligos specific for hTERT and hTR. As a starting RNA control, oligos for the amplification of GAPDH were used. C) Telomerase activity in VA13 cells. The cells were transiently transfected with 16 μg of the control pLNCX empty vector, expressing DKC or the GSE 24.2 peptide per million cells. 24 hours later, the telomerase activity was analysed as described above, using dilutions of the protein extracts from each transfection. D) The expression levels of hTERT and hTR in VA13 cells transfected with 16 μg of the different construct per million cells. RNA levels were detected as described above. GAPDH was used as a control. […] After 24 h of transfection, the luciferase activity was analyzed as described above. […]

B1: GSE 24.2: 165-pb cDNA fragment (nucleotides 268 to 433) of human dyskerin, SEQ ID NO1, encoding peptide SEQ ID NO2, expressed from pLNCX plasmid (nucleic acid, listed as Homo sapiens)
DNA: GGTTTCATTAATCTTGACAAGCCCTCTAACCCCTCTTCCCATGAGGTGGTAGCCTGGATTCGACGGATACTTCGGGTGGAGAAGACAGGGCACAGTGGTACTCTGGATCCCAAGGTGACTGGTTGTTTAATCGTGTGCATAGAACGAGCCACTCGCTTGGTGAAG
modifications: expressed from pLNCX plasmid; CDS (1)..(165) Sequence GSE 24.2
In the case of B1, the “cell viability in response to Inhibitor of Telomerase I” value (293T cells) is reported as “more resistant to the inhibitor of telomerase I”, the “cell viability in response to Inhibitor of Telomerase I” value (293T cells; listed as 24.2) is reported as “increases viability” and the “hTERT expression after cisplatin in pLNCX 24.2 cells” value (hTERT [1]) is reported as “no reduction in expression in the pLNCX 24.2 cells until 7 days of treatment”. The “expression of hTERT RNA in VA13 cells” value (hTERT [2]) was “capable of recovering”.

Reference: patent US9587002B2, “Sequence of nucleotides and peptides GSE 24.2 of dyskerin, which can induce telomerase activity, method for obtaining same, therapeutic compositions and applications thereof” (CONSEJO SUPERIOR DE INVESTIGACIONES CIENTIFICAS, priority 2005, dated 2017)
